Reference: US20220089710A1, “Method of Treating Signs and Symptoms of Osteoarthritis” (Pfizer Inc., priority 2019, published 2022)

Assays:
[1] = biological target: NGF (Homo sapiens, UniProt P01138); settings: cited from earlier work
[2] = test system: patients with osteoarthritis (OA) of the knee or hip; experiment: Example 3: treatment-emergent adverse events and deaths, Safety Population;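 note: seven SC injections given 8 weeks apart plus twice-daily oral study medication up to Week 56, Safety Population of all patients dosed at least once SC, analyzed by treatment actually received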
Method: Patients received a total of seven SC injections, each separated by 8 weeks and daily oral (PO) study medication BID through Week 56.
The Intent-to-Treat (ITT) Population included all patients who were randomized and received at least one dose of SC study drug. This analysis set was primary for all efficacy endpoints, which were analyzed according to randomization assignment. The Safety Population included all patients who received at least one dose of SC study treatment. This analysis set was primary for all safety endpoints, which were analyzed according to treatment received.

Sequence of NGF (P01138 122-241): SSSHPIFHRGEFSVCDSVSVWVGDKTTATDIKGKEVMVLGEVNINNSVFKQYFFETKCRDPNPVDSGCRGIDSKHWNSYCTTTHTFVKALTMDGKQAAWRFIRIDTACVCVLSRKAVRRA

## tanezumab: humanized immunoglobulin G Type 2 (IgG2) monoclonal antibody directed against human nerve growth factor (NGF); SEQ ID NOs: 9 or 11 and 10
[1]
  binding to human NGF: high affinity and specificity
[2]; 2.5 mg SC, during the safety follow-up period
  deaths: patients: 2
[2]; 2.5 mg SC, during the treatment period
  deaths: patients: 2
[2]; 2.5 mg SC, treatment period
  Adverse Event: % of patients: 62.8%
  Adverse Event: number of patients: 629
  Arthralgia: % of patients: 13.3%
  Arthralgia: number of patients: 133
  Back pain: % of patients: 3.4%
  Back pain: number of patients: 34
  Discontinued from study (adverse event): % of patients: 2.3%
  Discontinued from study (adverse event): number of patients: 23
  Discontinued study drug and continued study (adverse event): % of patients: 5.3%
  Discontinued study drug and continued study (adverse event): number of patients: 53
  Fall: % of patients: 6.5%
  Fall: number of patients: 65
  Headache: % of patients: 5.6%
  Headache: number of patients: 56
  Joint swelling: % of patients: 4.3%
  Joint swelling: number of patients: 43
  Musculoskeletal pain: % of patients: 4.3%
  Musculoskeletal pain: number of patients: 43
  Nasopharyngitis: % of patients: 5.7%
  Nasopharyngitis: number of patients: 57
  Osteoarthritis: % of patients: 3.9%
  Osteoarthritis: number of patients: 39
  Pain in extremity: % of patients: 3.1%
  Pain in extremity: number of patients: 31
  Paraesthesia: % of patients: 1.8%
  Paraesthesia: number of patients: 18
  Peripheral edema: % of patients: 1.9%
  Peripheral edema: number of patients: 19
  Rapidly progressive osteoarthritis (adverse event): % of patients: 1.8%
  Rapidly progressive osteoarthritis (adverse event): number of patients: 18
  Serious AE Acute kidney injury: n: 0
  Serious AE Acute myocardial infarction: %: 1.0%
  Serious AE Acute myocardial infarction: n: 1
  Serious AE Arthralgia: %: 0.4%
  Serious AE Arthralgia: n: 4
  Serious AE Cellulitis: n: 0
  Serious AE Cerebrovascular accident: %: 0.2%
  Serious AE Cerebrovascular accident: n: 2
  Serious AE Gastrointestinal hemorrhage: n: 0
  Serious AE Intervetebral disc protrusion: n: 0
  Serious AE Meniscus injury: %: 0.1%
  Serious AE Meniscus injury: n: 1
  Serious AE Osteoarthritis: %: 0.9%
  Serious AE Osteoarthritis: n: 9
  Serious AE Osteonecrosis: n: 0
  Serious AE Pneumonia: %: 0.1%
  Serious AE Pneumonia: n: 1
  Serious AE RPOA: %: 0.3%
  Serious AE RPOA: n: 3
  Serious AE Subchondral insufficiency fracture: %: 0.1%
  Serious AE Subchondral insufficiency fracture: n: 1
  Serious Adverse Event (any event): % of patients: 5.1%
  Serious Adverse Event (any event): number of patients: 51
  Severe Adverse Event: % of patients: 4.5%
  Severe Adverse Event: number of patients: 45
  Upper respiratory tract infection: number of patients: 57
[2]; 5 mg SC, after patient discontinuation from the study
  deaths: patients: 1
[2]; 5 mg SC, during the safety follow-up period
  deaths: patients: 1
[2]; 5 mg SC, during the treatment period
  deaths: patients: 3
[2]; 5 mg SC, treatment period
  Adverse Event: % of patients: 67.1%
  Adverse Event: number of patients: 670
  Arthralgia: % of patients: 16.5%
  Arthralgia: number of patients: 165
  Back pain: % of patients: 5.5%
  Back pain: number of patients: 55
  Discontinued from study (adverse event): % of patients: 2.0%
  Discontinued from study (adverse event): number of patients: 20
  Discontinued study drug and continued study (adverse event): % of patients: 8.8%
  Discontinued study drug and continued study (adverse event): number of patients: 88
  Fall: % of patients: 5.3%
  Fall: number of patients: 53
  Headache: % of patients: 4.5%
  Headache: number of patients: 45
  Joint swelling: % of patients: 4.8%
  Joint swelling: number of patients: 48
  Musculoskeletal pain: % of patients: 4.1%
  Musculoskeletal pain: number of patients: 41
